Data on 1 protein can be found in PMC5701055 (Nature Communications, 2017).

The series deals with the molecule itself. Nature of the series: crystal structure.

B1: soluble ectodomain of human aminopeptidase N (hAPN), residues 66–967, WT (receptor)
chain: DQSKAWNRYRLPNTLKPDSYRVTLRPYLTPNDRGLYVFKGSSTVRFTCKEATDVIIIHSKKLNYTLSQGHRVVLRGVGGSQPPDIDKTELVEPTEYLVVHLKGSLVKDSQYEMDSEFEGELADDLAGFYRSEYMEGNVRKVVATTQMQAADARKSFPCFDEPAMKAEFNITLIHPKDLTALSNMLPKGPSTPLPEDPNWNVTEFHTTPKMSTYLLAFIVSEFDYVEKQASNGVLIRIWARPSAIAAGHGDYALNVTGPILNFFAGHYDTPYPLPKSDQIGLPDFNAGAMENWGLVTYRENSLLFDPLSSSSSNKERVVTVIAHELAHQWFGNLVTIEWWNDLWLNEGFASYVEYLGADYAEPTWNLKDLMVLNDVYRVMAVDALASSHPLSTPASEINTPAQISELFDAISYSKGASVLRMLSSFLSEDVFKQGLASYLHTFAYQNTIYLNLWDHLQEAVNNRSIQLPTTVRDIMNRWTLQMGFPVITVDTSTGTLSQEHFLLDPDSNVTRPSEFNYVWIVPITSIRDGRQQQDYWLIDVRAQNDLFSTSGNEWVLLNLNVTGYYRVNYDEENWRKIQTQLQRDHSAIPVINRAQIINDAFNLASAHKVPVTLALNNTLFLIEERQYMPWEAALSSLSYFKLMFDRSEVYGPMKNYLKKQVTPLFIHFRNNTNNWREIPENLMDQYSEVNAISTACSNGVPECEEMVSGLFKQWMENPNNNPIHPNLRSTVYCNAIAQGGEEEWDFAWEQFRNATLVNEADKLRAALACSKELWILNRYLSYTLNPDLIRKQDATSTIISITNNVIGQGLVWDFVQSNWKKLFNDYGGGSFSFSNLIQAVTRRFSTEYELQQLEQFKKDNEETGFGSGTRALEQALEKTKANIKWVKENKEVVLQWFTENSK
Consider B1, for which the binding result is given as “binds”.
